Measurements from publication PMC9135631 (2022).
Substitutions are numbered along the chain they refer to.

Assays:
[1] = target: T1, Latrophilin-3 ADHD-related variant T783M (Lphn3^T783M) (human)
T1 chain: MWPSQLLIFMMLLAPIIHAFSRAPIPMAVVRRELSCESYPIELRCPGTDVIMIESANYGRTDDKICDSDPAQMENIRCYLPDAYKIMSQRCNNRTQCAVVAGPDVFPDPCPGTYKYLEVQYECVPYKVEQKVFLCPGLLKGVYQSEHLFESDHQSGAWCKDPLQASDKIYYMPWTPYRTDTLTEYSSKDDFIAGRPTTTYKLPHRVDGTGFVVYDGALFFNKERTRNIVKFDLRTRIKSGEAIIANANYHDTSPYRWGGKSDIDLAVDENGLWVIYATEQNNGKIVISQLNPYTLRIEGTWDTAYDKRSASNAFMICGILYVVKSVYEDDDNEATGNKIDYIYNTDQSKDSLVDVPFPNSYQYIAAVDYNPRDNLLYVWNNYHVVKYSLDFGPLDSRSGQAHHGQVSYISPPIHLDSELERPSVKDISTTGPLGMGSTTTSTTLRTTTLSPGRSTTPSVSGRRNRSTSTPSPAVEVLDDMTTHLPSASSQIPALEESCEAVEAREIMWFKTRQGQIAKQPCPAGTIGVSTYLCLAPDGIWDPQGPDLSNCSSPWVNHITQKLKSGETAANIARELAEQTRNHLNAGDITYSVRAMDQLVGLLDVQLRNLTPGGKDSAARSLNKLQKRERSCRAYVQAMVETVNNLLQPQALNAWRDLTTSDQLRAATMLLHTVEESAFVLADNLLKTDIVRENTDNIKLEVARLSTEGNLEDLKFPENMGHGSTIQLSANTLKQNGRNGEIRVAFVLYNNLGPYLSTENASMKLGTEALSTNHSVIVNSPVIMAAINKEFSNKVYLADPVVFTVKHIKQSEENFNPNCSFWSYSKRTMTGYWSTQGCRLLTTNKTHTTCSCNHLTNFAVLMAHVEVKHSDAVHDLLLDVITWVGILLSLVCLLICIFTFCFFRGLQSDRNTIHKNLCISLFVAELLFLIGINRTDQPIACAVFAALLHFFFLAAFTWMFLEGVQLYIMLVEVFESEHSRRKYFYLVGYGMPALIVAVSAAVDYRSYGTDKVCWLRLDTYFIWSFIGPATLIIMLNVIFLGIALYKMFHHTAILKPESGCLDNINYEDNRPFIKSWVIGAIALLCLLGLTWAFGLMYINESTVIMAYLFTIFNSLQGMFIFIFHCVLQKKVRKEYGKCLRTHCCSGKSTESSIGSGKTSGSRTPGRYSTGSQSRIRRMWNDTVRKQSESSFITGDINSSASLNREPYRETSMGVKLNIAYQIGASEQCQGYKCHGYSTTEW

[2] = target: T2, Latrophilin-3 ADHD-related variant D615N (Lphn3^D615N) (human)
T2 chain: T1 chain with D615N, M783T

B1: soluble FLRT3 extracellular domain fused to the constant fraction of human IgG (FLRT3^ECD-Fc) (Fc fusion)
chain: KSCPSVCRCDAGFIYCNDRFLTSIPTGIPEDATTLYLQNNQINNAGIPSDLKNLLKVERIYLYHNSLDEFPTNLPKYVKELHLQENNIRTITYDSLSKIPYLEELHLDDNSVSAVSIEEGAFRDSNYLRLLFLSRNHLSTIPWGLPRTIEELRLDDNRISTISSPSLQGLTSLKRLVLDGNLLNNHGLGDKVFFNLVNLTELSLVRNSLTAAPVNLPGTNLRKLYLQDNHINRVPPNAFSYLRQLYRLDMSNNNLSNLPQGIFDDLDNITQLILRNNPWYCGCKMKWVRDWLQSLPVKVNVRGLMCQAPEKVRGMAIKDLNAELFDCKDSGIVSTIQITTAIPNTVYPAQGQWPAPVTKQPDIKNPKLTKDHQTTGSPSRKTITITVKSVTSDTIHISWKLALPMTALRLSWLKLGHSPAFGSITETIVTGERSEYLVTALEPDSPYKVCMVPMETSNLYLFDETPVCIETETAPLRMYNPTTTLNREQEKEPYKNPNLP
modifications: HA/Flag epitopes left out; isoform assumed; signal peptide removed and GPS autoproteolysis expected
[1]
  Kd: 1.22 nM
[2]
  Kd: 1.25 nM
